Literature values as cited in paper PMC9570074.
Where two headings read alike, the source gives them in different places.

Experiments:
CD30L (Homo sapiens) = CD30L (Homo sapiens) (UniProt P32971); assay: SPR
TRAIL (Homo sapiens) [1] = target: TRAIL (Homo sapiens) (UniProt P50591)
TRAIL (Homo sapiens) [2] = target: TRAIL (Homo sapiens) (UniProt P50591); remark: listed apart in the source

Sequence of UniProt P50591 (P50591 whole entry): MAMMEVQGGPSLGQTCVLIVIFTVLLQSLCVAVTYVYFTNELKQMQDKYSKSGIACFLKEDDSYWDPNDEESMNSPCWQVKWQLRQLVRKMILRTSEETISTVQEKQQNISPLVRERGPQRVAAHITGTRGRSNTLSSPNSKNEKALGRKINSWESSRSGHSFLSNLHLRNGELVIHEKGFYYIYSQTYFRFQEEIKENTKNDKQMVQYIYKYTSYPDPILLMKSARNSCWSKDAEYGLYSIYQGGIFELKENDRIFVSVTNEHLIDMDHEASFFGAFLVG
Sequence of UniProt P32971 (P32971 whole entry): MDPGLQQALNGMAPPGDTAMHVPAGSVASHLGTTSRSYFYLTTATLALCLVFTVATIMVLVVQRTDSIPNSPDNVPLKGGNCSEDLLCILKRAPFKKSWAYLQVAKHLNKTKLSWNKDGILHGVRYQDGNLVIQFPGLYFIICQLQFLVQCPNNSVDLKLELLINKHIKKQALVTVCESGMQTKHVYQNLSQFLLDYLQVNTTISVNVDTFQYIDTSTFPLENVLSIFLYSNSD

Substance: CD30 (from UniProt P28908)
- Kd (CD30L (Homo sapiens)): 5 nM

Substance: DcR1 (from UniProt O14798)
- Kd (TRAIL (Homo sapiens) [1]): 1 nM

Substance: DcR2 (from UniProt Q9UBN6)
- Kd (TRAIL (Homo sapiens) [2]): 1 nM
